Test results as given in article PMC3618350 (G3: Genes|Genomes|Genetics, 2013).
Where two headings read alike, the source gives them in different places.

Tests used:
Experiment in all cases: two-hybrid
Rev1 = molecular target: T1, Rev1 (S. cerevisiae, UniProt P12689 1-985)
T1 sequence (looked up): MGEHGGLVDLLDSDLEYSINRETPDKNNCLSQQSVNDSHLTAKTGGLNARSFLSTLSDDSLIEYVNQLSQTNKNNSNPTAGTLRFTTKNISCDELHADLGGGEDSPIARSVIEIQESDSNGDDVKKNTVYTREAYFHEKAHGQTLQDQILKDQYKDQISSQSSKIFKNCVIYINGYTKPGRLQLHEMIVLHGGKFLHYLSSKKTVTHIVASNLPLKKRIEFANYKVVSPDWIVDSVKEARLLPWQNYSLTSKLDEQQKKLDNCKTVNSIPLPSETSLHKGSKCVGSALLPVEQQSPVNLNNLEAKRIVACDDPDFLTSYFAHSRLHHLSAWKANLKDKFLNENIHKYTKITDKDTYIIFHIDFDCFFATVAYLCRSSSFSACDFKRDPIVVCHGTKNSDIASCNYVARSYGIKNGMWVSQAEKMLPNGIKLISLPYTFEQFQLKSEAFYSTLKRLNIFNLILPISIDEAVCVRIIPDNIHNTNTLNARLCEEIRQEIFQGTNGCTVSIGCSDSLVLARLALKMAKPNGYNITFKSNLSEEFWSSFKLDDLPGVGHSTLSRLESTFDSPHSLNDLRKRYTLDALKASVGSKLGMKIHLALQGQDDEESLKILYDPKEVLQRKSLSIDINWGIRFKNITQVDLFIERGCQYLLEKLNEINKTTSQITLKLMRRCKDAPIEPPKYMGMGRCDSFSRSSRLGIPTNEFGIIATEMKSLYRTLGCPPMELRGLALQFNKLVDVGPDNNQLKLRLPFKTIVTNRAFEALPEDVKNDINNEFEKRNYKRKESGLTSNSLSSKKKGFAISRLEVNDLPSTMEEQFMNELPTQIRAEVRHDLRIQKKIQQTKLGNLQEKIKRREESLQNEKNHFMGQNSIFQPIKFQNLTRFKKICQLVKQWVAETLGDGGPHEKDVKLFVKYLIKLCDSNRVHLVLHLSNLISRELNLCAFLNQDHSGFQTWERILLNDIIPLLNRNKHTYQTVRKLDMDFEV

Rev7 [1] = molecular target: T2, Rev7 (S. cerevisiae, UniProt P38927 1-245)
T2 sequence (looked up): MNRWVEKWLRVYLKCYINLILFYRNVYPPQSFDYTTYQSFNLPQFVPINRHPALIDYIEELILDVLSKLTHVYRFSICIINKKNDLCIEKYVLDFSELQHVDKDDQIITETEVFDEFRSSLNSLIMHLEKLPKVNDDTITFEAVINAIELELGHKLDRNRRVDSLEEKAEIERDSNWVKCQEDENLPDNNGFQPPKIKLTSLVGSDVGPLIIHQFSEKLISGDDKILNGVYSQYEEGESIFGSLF

Rev7 [2] = molecular target: T2, Rev7; remark: listed apart in the source

B1: Mei4 (natural protein, S. cerevisiae, UniProt P29467 1-408, looked up)
chain: MSRGKLEDMEQKETSEVDWIICFALIQSRNPTLWKRALSRKKGDVEDVGALKSEKNLKINPRENSKHIYKWVAPFENGFLNNKSLFAHLEPIYNFLCQNKYKSFEDAVGLKELQSFSKDVSTADINNWFLPRYKILLKILSLKTKEIDFRGLSQVFQTLQILLVSHYSHRIDSDSSFKRTLIDVHVFNFIAKFLFNRILLKKNQNDPKWLQNFYDQGDGKHLCDKVDYKRLCSLHFTLIYSIINIQLIKIKTNQTFEPQILKYVSVLKLIEHILIIIESLIHVLIRFVSKHKLICINRKKAYCRVYLERELSLKKTYLKNFYSVISGVPEKELGGLLKILKIVILSLLETFESIEWQHLKPFLEKFPAHEISLQKKRKYIQAALLITAERNLIARFRLSRWFNETENI
fold change in reporter activity over the highest negative control (Rev1): 3.01 fold

B2: Rad54 (natural protein, S. cerevisiae, UniProt P32863 1-898, looked up)
chain: MARRRLPDRPPNGIGAGERPRLVPRPINVQDSVNRLTKPFRVPYKNTHIPPAAGRIATGSDNIVGGRSLRKRSATVCYSGLDINADEAEYNSQDISFSQLTKRRKDALSAQRLAKDPTRLSHIQYTLRRSFTVPIKGYVQRHSLPLTLGMKKKITPEPRPLHDPTDEFAIVLYDPSVDGEMIVHDTSMDNKEEESKKMIKSTQEKDNINKEKNSQEERPTQRIGRHPALMTNGVRNKPLRELLGDSENSAENKKKFASVPVVIDPKLAKILRPHQVEGVRFLYRCVTGLVMKDYLEAEAFNTSSEDPLKSDEKALTESQKTEQNNRGAYGCIMADEMGLGKTLQCIALMWTLLRQGPQGKRLIDKCIIVCPSSLVNNWANELIKWLGPNTLTPLAVDGKKSSMGGGNTTVSQAIHAWAQAQGRNIVKPVLIISYETLRRNVDQLKNCNVGLMLADEGHRLKNGDSLTFTALDSISCPRRVILSGTPIQNDLSEYFALLSFSNPGLLGSRAEFRKNFENPILRGRDADATDKEITKGEAQLQKLSTIVSKFIIRRTNDILAKYLPCKYEHVIFVNLKPLQNELYNKLIKSREVKKVVKGVGGSQPLRAIGILKKLCNHPNLLNFEDEFDDEDDLELPDDYNMPGSKARDVQTKYSAKFSILERFLHKIKTESDDKIVLISNYTQTLDLIEKMCRYKHYSAVRLDGTMSINKRQKLVDRFNDPEGQEFIFLLSSKAGGCGINLIGANRLILMDPDWNPAADQQALARVWRDGQKKDCFIYRFISTGTIEEKIFQRQSMKMSLSSCVVDAKEDVERLFSSDNLRQLFQKNENTICETHETYHCKRCNAQGKQLKRAPAMLYGDATTWNHLNHDALEKTNDHLLKNEHHYNDISFAFQYISH
fold change in reporter activity over the highest negative control (Rev7 [1]): 1.49 fold

B3: Rec114 (natural protein, S. cerevisiae, UniProt P32841 1-428, looked up)
chain: MYEYCSVVIKKYSKYTIPSFAPNGFQSMLEPPQIDKWQHLSANCTLQFRVLLMDSRQILINVVLNNSTLLENIRLPLGDNQDLIQFSCKSPIISCKYISEEFGPRMLRRFQMNLPNDVEFNRTVVSLKNLNFVLRTARTSIAQSTITSQVQGNNNGTKVCFTEGPKVSSYTNPNTQFQTQNMIMDFSQRYQEESERESNNRSNITLPHDSIQIAQQIWPNTDLNVVQSSQDLNTPMATQTVLGRPESLIVQPLEVSQSPPNTTNCLPNAENKKKKVDTTSDFTSRKEIALCKTGLLETIHIPKERESQMQSVTGLDATPTIIWSPGKDNTAKKNTSNKKNIDDKLTNPQKSGNTHTPDRNKEVLPNGTLNETRKEASPSEGLTIRVKNVNRNASRKISKRLIKEKLKDEEFMKWVNKVETVLNKMFEK
fold change in reporter activity over the highest negative control (Rev7 [2]): 6.27 fold

B4: Spo11 (natural protein, S. cerevisiae, UniProt P23179 1-398, looked up)
chain: MALEGLRKKYKTRQELVKALTPKRRSIHLNSNGHSNGTPCSNADVLAHIKHFLSLAANSLEQHQQPISIVFQNKKKKGDTSSPDIHTTLDFPLNGPHLCTHQFKLKRCAILLNLLKVVMEKLPLGKNTTVRDIFYSNVELFQRQANVVQWLDVIRFNFKLSPRKSLNIIPAQKGLVYSPFPIDIYDNILTCENEPKMQKQTIFPGKPCLIPFFQDDAVIKLGTTSMCNIVIVEKEAVFTKLVNNYHKLSTNTMLITGKGFPDFLTRLFLKKLEQYCSKLISDCSIFTDADPYGISIALNYTHSNERNAYICTMANYKGIRITQVLAQNNEVHNKSIQLLSLNQRDYSLAKNLIASLTANSWDIATSPLKNVIIECQREIFFQKKAEMNEIDARIFEYK
fold change in reporter activity over the highest negative control (Rev1): 4.15 fold

B5: Rad57 (natural protein, S. cerevisiae, UniProt P25301 1-460, looked up)
chain: MPRALSIKFDNTYMDLYDELPESKLLYDEEFSYLLDAVRQNGVCVVDFLTLTPKELARLIQRSINEVFRFQQLLVHEYNEKYLEICEKNSISPDNGPECFTTADVAMDELLGGGIFTHGITEIFGESSTGKSQLLMQLALSVQLSEPAGGLGGKCVYITTEGDLPTQRLESMLSSRPAYEKLGITQSNIFTVSCNDLINQEHIINVQLPILLERSKGSIKLVIIDSISHHLRVELQNKSFRESQENKNYLDRMAEKLQILAHDYSLSVVVANQVGDKPLANSPVAHRTYVTDYDYQLGWLVGWKNSTILYRQMNSLLGASSNNDEILSDDEDYMLIERVMSTVNDRNYDFFSKKKPPIIENKTVERNSSSPISRQSKKRKFDYRVPNLGLTWSNHVSTRILLQKSFKASTIIQRGEAHLYKGGDSASFWQVKRTMKVVYSTFAKPGQIAYQITKRGIETA
fold change in reporter activity over the highest negative control (Rev7 [1]): 2 fold
